Data taken from patent US20250188157A1 (UNIVERSITY OF TOKYO, published 2025).
Substitutions are numbered along the chain they refer to.

Key:
[1] = biological target: T1, E. coli wild-type SHMT, GST fusion protein (E. coli, UniProt P0A825 1-417); test: ELISA, GST fusion protein coated at 2 ug/ml, dilution series of antibody
T1 construct: Overexpressed in E. coli as GST fusion protein, purified, coated at 2 ug/ml on the ELISA plate; not shown: GST tag
T1 sequence: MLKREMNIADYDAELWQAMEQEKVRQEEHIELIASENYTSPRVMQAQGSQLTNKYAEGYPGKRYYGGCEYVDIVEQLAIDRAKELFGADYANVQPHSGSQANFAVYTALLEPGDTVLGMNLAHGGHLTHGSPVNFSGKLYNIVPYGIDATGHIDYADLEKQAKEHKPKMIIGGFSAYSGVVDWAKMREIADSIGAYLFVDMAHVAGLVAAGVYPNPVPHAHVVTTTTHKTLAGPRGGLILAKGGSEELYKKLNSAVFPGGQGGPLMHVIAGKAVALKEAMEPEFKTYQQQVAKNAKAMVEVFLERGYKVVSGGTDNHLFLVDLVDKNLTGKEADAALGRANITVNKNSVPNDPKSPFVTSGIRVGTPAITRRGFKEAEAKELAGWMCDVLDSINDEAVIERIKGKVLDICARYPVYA

E. coli SHMT (25-45) = biological target: T2, E. coli SHMT (25-45) (E. coli); test: X-ray crystal structure of the complex
T2 construct: Expressed as GST fusion, cleaved with HRV 3C protease and purified for crystallisation; also called E. coli SHMT antigen
T2 peptide: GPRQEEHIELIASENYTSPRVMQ

[2] = biological target: T3, C. difficile iPGM (486-509) (Clostridium difficile); test: X-ray crystal structure of the complex
T3 construct: the blank is left out; also called C. difficile iPGM antigen
T3 peptide: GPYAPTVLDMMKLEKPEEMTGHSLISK

E. coli iPGM = biological target: T4, E. coli iPGM (E. coli, UniProt P37689 1-514, limits assumed); test: Western blot
T4 sequence (looked up): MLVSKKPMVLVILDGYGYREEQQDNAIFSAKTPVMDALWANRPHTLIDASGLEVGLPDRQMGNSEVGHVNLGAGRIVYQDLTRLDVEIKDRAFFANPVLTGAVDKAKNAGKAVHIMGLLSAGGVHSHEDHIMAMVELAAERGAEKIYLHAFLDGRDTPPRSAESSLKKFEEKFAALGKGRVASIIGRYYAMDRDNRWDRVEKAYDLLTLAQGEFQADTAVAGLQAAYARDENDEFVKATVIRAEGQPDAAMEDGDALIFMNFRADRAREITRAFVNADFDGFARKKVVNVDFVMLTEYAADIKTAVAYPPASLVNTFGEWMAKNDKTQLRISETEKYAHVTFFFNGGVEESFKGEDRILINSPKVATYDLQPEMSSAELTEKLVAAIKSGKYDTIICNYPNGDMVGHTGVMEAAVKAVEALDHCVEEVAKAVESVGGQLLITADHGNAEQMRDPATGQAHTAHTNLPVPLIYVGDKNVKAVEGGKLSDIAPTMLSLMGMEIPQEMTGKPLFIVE

B1: RS_H007_L001 (antibody, V domains shown)
VH: EVQLQQSGSELVKSGASVKLSCTVSGFNFTNYYIHWVRQRTEQGLEWIGRIDPENNQTTYAPKFQGKATMTADTSSNTAYLQLTSLTSEDTAVYYCARSTVLDYWGHGTTLTVSS
VL: DVLMTQSPASLSVSLGDRATISCRASQSIVHTNGNTYLEWYLQKPGQSPKLLIYKVSNRFSGVPDRFSGSGSGTDFILKISRVEAEDLGVYYCFQGSHVPPTFGGGTKLEVK
B1: binds [1].

B2: RS_H000_L000GR Fab (Fab, V domains shown)
VH: B1 VH with N31D, N56D, Q57E
VL: B1 VL with S7T, A9L, S12P, R18Q, T20S
notes: also called IgG W27 Fab
B2: binds (E. coli SHMT (25-45)); binds [2].

B3: W27G2 antibody (mouse W27G2 hybridoma-producing IgA antibody) (antibody, V domains shown)
VH: B1 VH with N31D, N56D, Q57E
VL: DVLMTQTPLSLPVSLGDQASISCRASQSIVHTNGNTYLEWYLQKPGQSPKLLIYKVSNRFSGVPDRFSGSGSGTDFILKISRVEAEDLGVYYCFQGSHVPPTFGGGTKLEVKR
notes: Hybridoma-producing IgA; Both names are treated as one molecule here; W27G2CHT is the hydroxyapatite crude preparation, W27G2GF the gel filtration multimer fraction; also called W27 antibody; W27G2CHT
B3: no binding (E. coli iPGM); binds [1].

B4: RS_H000_L005 (antibody, V domains shown)
VH: B1 VH with N31D, N56D, Q57E
VL: B1 VL with A25S
B4: binds [1].

B5: RS_H007_L005 (antibody, V domains shown)
VH: B1 VH
VL: B1 VL with A25S
B5: binds [1].

B6: RS_H007_L004 (antibody, V domains shown)
VH: B1 VH
VL: B1 VL with L11M, A25S
B6: binds [1].

B7: RS_H007_L002 (antibody, V domains shown)
VH: B1 VH
VL: B1 VL with A19V
B7: binds [1].

B8: RS_H000_L001 (antibody, V domains shown)
VH: B1 VH with N31D, N56D, Q57E
VL: B1 VL
notes: recombinant multimeric IgA co-expressed with J chain (H:L:J = 2:2:1); mainly dimers by SDS-PAGE; also called rW27
B8: binds [1].
